According to patent publication US10654908B2, “Isolated T cell receptors and methods of use therefor” (University of Virginia Patent Foundation, priority 2014, dated 2020):
Where no end group is shown, it is not given here. [ ]: non-standard residue; d: D form. pS = N[C@@H](COP(=O)(O)O)C(=O)O

Tests used:
human CD8 T-cells = test: IFN-γ ELISpot of human CD8 T-cells cultured 7 days with peptide-pulsed DC; type: cell-based; conditions: for donors with pre-existing memory response: CD45RO+ CD8 T-cells from four donors, 7 days, cutoff >50 spots/25,000 cells; for magnitude of phosphopeptide-specific IFN-γ responses of normal donor T-cells: bulk CD8 T-cells, 7 days with peptide-pulsed autologous DC, restimulated with phosphopeptide-pulsed HLA-A2+ targets
[1] = Immunization of AAD transgenic mice with phosphopeptide-pulsed DC; conditions: mouse
[2] = test system: C1R-A2 cells pulsed with 1 μM phosphopeptide; test: In vitro cytotoxicity assay (CFSE); type: cell-based, human; conditions: 5 hours co-culture, pulsed versus unpulsed C1R-A2
Experimental: Phosphopeptide-specific murine TCR-expressing human CD8 T-cells were co-cultured for 5 hours with a 1:1 mix of C1R-A2 cells pulsed with 1 μM phosphopeptide and stained with 1 μM carboxyfluorescein succinimidyl ester (CFSE; Life Technologies) and unpulsed C1R-A2 cells stained with 0.1 μM CFSE. Specific killing was assessed by evaluating percent loss of the peptide-pulsed population relative to the unpulsed population.

[3] = test system: pCDC25b38-46-pulsed C1R-AAD and C1R-A2 targets; test: CD107a / IFN-γ flow cytometry of TCR-electroporated human CD8 T-cells on pCDC25b peptide-pulsed targets; type: cell-based
Experimental: Prior to electroporation, donor T-cells were washed three times in serum-free OPTI-MEM® media (Life Technologies Corporation, Gaithersburg, Md., United States of America) and were suspended at 25×10^6/ml. Cells were mixed with 2 μg IVT RNA of each TCR α and β chain per 10^6 cells and transferred to pre-chilled BTX 2 mm gap cuvettes. Using the BTX T820 electroporation system (BTX Instrument Division, Harvard Apparatus, Inc. Holliston, Mass., United States of America), cells were pulsed at 500V for 0.3 msec. Transfected cells were placed in AIM-V® brand serum-free medium (Life Technologies Corporation, Gaithersburg, Md., United States of America) with 5% AB^+ serum (GEMCELL™; Gemini Bio-Products, West Sacramento, Calif., United States of America) for 8-24 hours and evaluated for TCR expression and functionality.
14-16 hours post-electroporation, phosphopeptide-specific murine TCR-transfected human CD8 T-cells were co-cultured in AIM-V (Life Technologies Corporation, Gaithersburg, Md., United States of America) supplemented with 5% human AB^+ serum (GEMCELL™; Gemini Bio-Products, West Sacramento, Calif., United States of America) with peptide-pulsed or unpulsed C1R-AAD, C1R-A2, or cancer cells endogenously expressing the pIRS-21097-1105 or the pCDC25b38-46 phosphopeptide. Cell surface expression of mouse TCRβ, human CD3, and human CD8 molecules on human CD8 T-cells were assessed using antibodies from either Becton Dickinson Bioscience (San Jose, Calif., United States of America) or eBioScience Inc. (San Diego, Calif., United States of America). […] Cells were then stained for surface molecule expression, fixed and permeabilized using CYTOFIX/CYTOPERM™ (Becton Dickinson Bioscience (San Jose, Calif., United States of America) and stained for intracellular cytokine (anti-IFN-γand anti-TNF-α, eBioScience Inc., San Diego, Calif., United States of America). Immunofluoresence was analyzed using the Becton Dickinson FACSCANTO™ I or FACSCANTO™II flow cytometer and analyzed using FlowJo software (Tree Star, Inc., Ashland, Oreg., United States of America).

[4] = test system: HLA-A2+ cancer cell lines; test: CD107a / IFN-γ flow cytometry after co-culture with human cancer cells; type: cell-based
Experimental: 14-16 hours post-electroporation, phosphopeptide-specific murine TCR-transfected human CD8 T-cells were co-cultured in AIM-V (Life Technologies Corporation, Gaithersburg, Md., United States of America) supplemented with 5% human AB^+ serum (GEMCELL™; Gemini Bio-Products, West Sacramento, Calif., United States of America) with peptide-pulsed or unpulsed C1R-AAD, C1R-A2, or cancer cells endogenously expressing the pIRS-21097-1105 or the pCDC25b38-46 phosphopeptide. Cell surface expression of mouse TCRβ, human CD3, and human CD8 molecules on human CD8 T-cells were assessed using antibodies from either Becton Dickinson Bioscience (San Jose, Calif., United States of America) or eBioScience Inc. (San Diego, Calif., United States of America). During a 5 hour co-culture of stimulator cells with phosphopeptide-specific murine TCR-transfected human CD8-T cells at 37° C., anti-human CD107a-Alexa 647 antibody (eBioScience Inc., San Diego, Calif., United States of America) was added in the presence of 5 μg/ml Brefeldin A (SIGMA-ALDRICH® Co. LLC, St. Louis, Mo., United States of America), 5 μg/ml Monensin (eBioScience Inc., San Diego, Calif., United States of America) and 300 IU/ml human IL-2 (Chiron Corporation, Emeryville, Calif., United States of America). Cells were then stained for surface molecule expression, fixed and permeabilized using CYTOFIX/CYTOPERM™ (Becton Dickinson Bioscience (San Jose, Calif., United States of America) and stained for intracellular cytokine (anti-IFN-γand anti-TNF-α, eBioScience Inc., San Diego, Calif., United States of America). Immunofluoresence was analyzed using the Becton Dickinson FACSCANTO™ I or FACSCANTO™II flow cytometer and analyzed using FlowJo software (Tree Star, Inc., Ashland, Oreg., United States of America).
Whether these transfected human CD8 T-cells could recognize endogenously processed and presented pIRS-21097-1105 or pCDC25b38-46 phosphopeptide on HLA-A2^+ cancer cell lines was investigated. To correlate pIRS-21097-1105-specific T-cell recognition with phosphopeptide expression, an antibody specific for the Ser^1100-phosphorylated IRS-2 protein (pSer^1100-IRS-2) as well as an antibody that recognizes total IRS-2 protein (Zarling et al., 2006) were employed. […] These two cell lines also expressed high levels of pSer^1100-IRS-2 (FIG. 4). […] There is no specific antibody for Ser^42-phosphorylated CDC25b.

AAD+ SLM2 melanoma cells = test: Tumor control after adoptive transfer of TCR-expressing human CD8 T-cells; type: in vivo, NOD/SCID/IL-2Rγc−/− mice
From the text: Seven to 8 week old male […] mice (The Jackson Laboratory, Bar Harbor, Me., United States of America) were inoculated subcutaneously with 1.4×10^6 AAD^+ SLM2 melanoma cells. 3×10^6 human CD8 T-cells expressing either pIRS-2- or pCDC25b-specific TCR, or 1.5×10^6 of both populations, were adoptively transferred 3 days later. An additional 1.5×10^6 T-cells were given 4 days later. All mice received 1500 CU of IL-2 (R&D Systems, Inc., Minneapolis, Minn., United States of America) […]. every other day for 10 days. Tumor size was measured every 2-3 days with a digital caliper, and calculated as L×W (mm^2). Tumor free survival is equal to the measurement day when the tumor size was >30 mm^2.
Log-rank (Mantel Cox Test) analysis, Cox proportional hazard modeling, and parametric modeling were performed to determine statistical significance where indicated. p values less than 0.05 were considered significant.

[5] = test system: pIRS-2 pulsed C1R-A2 or C1R-AAD target cells; test: IFN-γ ELISA of TCR-expressing human CD8 T-cells with pulsed C1R-A2 or C1R-AAD targets (pIRS-2); type: cell-based; conditions: 18-20 hours co-culture
Experimental: Human CD8 T-cells were electroporated with IVT RNA encoding murine TCR αβ chains specific for pIRS-2 (pIRS2 BK TCR; FIG. 10A; SEQ ID NO: 2) or pDesmuslin (A10 (right to left hatched boxes) or A11 (left to right hatched boxes) TCR chains; FIG. 10B), and assayed 12-14 hours later. TCR-expressing human CD8 T-cells were co-cultured for 18-20 hours with C1R-A2 or C1R-AAD pulsed or unpulsed target cells. Supernatants were then harvested and IFN-γ was detected by ELISA. No RNA controls underwent electroporation with no addition of IVT RNA (open squares).

[6] = recognized / evaluated cell lines

RVApSPTSGV (RVA[pS]PTSGV; listed as Homo sapiens) [pIRS-21097-1105]
immunogenicity in vitro for human T-cells (human CD8 T-cells): strongly immunogenic
donors with pre-existing memory response (human CD8 T-cells): 2/4
magnitude of phosphopeptide-specific IFN-γ responses of normal donor T-cells (human CD8 T-cells): surprisingly high
immunogenicity in vivo for HLA-A2 transgenic mice [1]: strongly immunogenic

GLLGpSPVRA (GLLG[pS]PVRA; listed as Homo sapiens) [pCDC25b38-46]
immunogenicity in vitro for human T-cells (human CD8 T-cells): strongly immunogenic
donors with pre-existing memory response (human CD8 T-cells): all four and four
magnitude of phosphopeptide-specific IFN-γ responses of normal donor T-cells (human CD8 T-cells): surprisingly high
immunogenicity in vivo for HLA-A2 transgenic mice [1]: strongly immunogenic

B1: pCDC25b-specific TCR: murine TCR binding GLLGpSPVRA/HLA-A2; α chain SEQ ID NO: 14, β chain SEQ ID NO: 16; tested expressed in human CD8 T-cells (protein, listed as Mus musculus)
alpha: MKTVTGPLFLCFWLQLNCVSRGEQVEQRPPHLSVREGDSAVIICTYTDPNSYYFFWYKQEPGAGLQLLMKVFSSTEINEGQGFTVLLNKKDQQLSLNLTAAHPGDSAVYFCAVKPGGYKVVFGSGTRLLVSPDIQNPEPAVYQLKDPRSQDSTLCLFTDFDSQINVPKTMESGTFITDKTVLDMKAMDSKSNGAIAWSNQTSFTCQDIFKETNATYPSSDVPCDATLTEKSFETDMNLNFQNLSVMGLRILLLKVAGFNLLMTLRLWSS
beta: MSNTAFPDPAWNTTLLSWVALFLLGTKHMEAAVTQSPRNKVAVTGGKVTLSCNQTNNHNNMYWYRQDTGHGLRLIHYSYGAGSTEKGDIPDGYKASRPSQENFSLILELATPSQTSVYFCASGGDTQYFGPGTRLLVLEDLRNVTPPKVSLFEPSKAEIANKQKATLVCLARGFFPDHVELSWWVNGKEVHSGVSTDPQAYKERNYSYCLSSRLRVSATFWHNPRNHFRCQVQFHGLSEEDKWPEGSPKPVTQNISAEAWGRADCGITSASYHQGVLSATILYEILLGKATLYAVLVSGLVLMAMVKKKNS
specific killing of peptide-pulsed targets [2]: killed pCDC25b38-46-pulsed but not pIRS-21097-1105 or pβ-catenin30-39-pulsed targets
recognition of phosphopeptide-pulsed targets expressing HLA-A2 compared with AAD [3]: at least as well as those expressing AAD
response to HLA-A2+ targets pulsed with high levels of the non-phosphorylated peptide ([3]; IFN-γ / CD107a): Neither cell produced IFN-γ or upregulated CD107a
EC50 ([3]; human CD8 T-cells electroporated with TCR IVT RNA, phosphopeptide-pulsed AAD+ targets, IFN-γ / CD107a, read-out: peptide dose for half-maximal recognition): 0.4 to 0.8 nM
recognition (CD107a / IFN-γ) of HLA-A2+ melanoma cell lines MelSwift and 1102Mel [4]: recognized two HLA-A2^+ melanomas
recognition of HLA-A2+ EBV-transformed lymphoblastoid cell line JY [4]: did recognize
recognition of HLA-A2neg cancer cells T47D and SK-Mel-28 [4]: did not recognize
recognition of HLA-A2neg melanoma SK-Mel-28 or HLA-A2+ antigen-low ovarian carcinoma OV-90 [4]: failed to recognize
level of recognition of cancer cells ([4]; compared with peptide-pulsed targets): relatively low
HLA-A2+ breast carcinomas recognized [4, 6]: 3/3
HLA-A2+ colorectal carcinomas recognized [4, 6]: did not recognize
HLA-A2+ melanomas recognized [4, 6]: 3/4
HLA-A2+ ovarian carcinomas recognized [4, 6]: did not recognize
tumor-free survival (AAD+ SLM2 melanoma cells; T-cells on days 3 and 7 plus IL-2, versus IL-2 only control, tumor-free = tumor size not >30 mm^2): enhanced tumor-free survival
tumor outgrowth in comparison to control animals (AAD+ SLM2 melanoma cells; control received IL-2 only): delayed outgrowth

B2: pIRS2 BK TCR: second murine TCR specific for the IRS-2 phosphopeptide; α chain SEQ ID NO: 8, β chain SEQ ID NO: 10 (protein, listed as Mus musculus)
alpha: MLLALLPVLGIHFVLRDAQAQSVTQPDARVTVSEGASLQLRCKYSYSGTPYLFWYVQYPRQGLQLLLKYYSGDPVVQGVNGFEAEFIKSNSSFHLRKASVHWSDSAVYFCAVSAGSGGKLTLGAGTRLQVNLDIQNPEPAVYQLKDPRSQDSTLCLFTDFDSQVNVPKTMESGTFIADKTVLDMKAMDSKSNGAIAWSNQTSFTCQDIFKETNATYPSSDVPCDATLTEKSFETDMNLNFQNLSVMGLRILLLKVAGFNLLMTLRLWSS
beta: MGSRLFFVVLILLCAKHMEAAVTQSPRSKVAVTGGKVTLSCHQANNHDYMYWYRQDTGHGLRLIHYSYVADSTEKGDIPDGYKASRPSQENFSLILELASLSQTAVYFCASSDRDNYAEQFFGPGTRLTVLEDLRNVTPPKVSLFEPSKAEIANKQKATLVCLARGFFPDHVELSWWVNGKEVRSGVSTDPQAYKESNYSYCLSSRLRVSATFWHNPRNHFRCQVQFHGLSEEDKWPEGSPKPVTQNISAEAWGRADCGITSASYHQGVLSATILYEILLGKATLYAVLVSGLVLMAMVKKKNS
recognition of HLA-A2+ targets and effector function (IFN-γ ELISA) [5]: conferred recognition of HLA-A2+ targets and effector function
